The text below walks through data of patent US20120189572A1.

Test [1] has as its target full length wild type human DR5 (human) (UniProt O14763). Nature of the test: cell-based or functional assay.
The target of test [2] is mDR5ectm-td1, extracellular and transmembrane domains of murine DR5 fused to tetanus toxin fragment (mouse). As to the kind of experiment: flow cytometry on SKOV3 cells transfected with murine DR5 (mDR5ectm-td1). A general note: In flow cytometry, cells or beads pass a laser one at a time.

UniProt O14763, sequence (O14763 other isoform, or with tags, fused parts or gaps limits assumed): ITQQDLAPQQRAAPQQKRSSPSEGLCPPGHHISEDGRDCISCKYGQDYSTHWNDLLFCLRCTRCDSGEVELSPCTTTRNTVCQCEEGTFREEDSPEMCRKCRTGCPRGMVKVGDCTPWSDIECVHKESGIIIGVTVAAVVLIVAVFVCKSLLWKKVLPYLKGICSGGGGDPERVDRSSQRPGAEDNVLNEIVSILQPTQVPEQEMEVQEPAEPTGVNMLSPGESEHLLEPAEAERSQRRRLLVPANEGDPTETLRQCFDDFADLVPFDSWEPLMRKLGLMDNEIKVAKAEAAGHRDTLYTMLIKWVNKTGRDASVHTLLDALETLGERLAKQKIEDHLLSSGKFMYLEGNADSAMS

In test [1], “human DR5 agonist monoclonal antibody mAb631 (clone 71903, MAB631; R&D Systems)” registered a growth inhibition of SUM159 cells (MTT) at 1 µg/mL antibody of 36%, a growth inhibition of SUM159 cells (MTT) at 2 µg/mL antibody of 55% and a growth inhibition of SUM159 cells (MTT) at 4 µg/mL antibody of 65%.
In test [2], MD5-1, monoclonal antibody to mouse DR5 displayed a percent of cells stained of 100%.
